In publication PMC2888511:

Experiments:
[1] = target: Beclin 1 (UniProt Q14457); assay: anti-flag IP of flag-Beclin 1, HA-Vps34 blot; settings: reference: wild type with Cdk5/p25; sites T159
[2] = target: Beclin 1 (UniProt Q14457); assay: anti-flag IP of flag-Vps34, GFP-Beclin 1 blot; settings: reference: wild type with Cdk5/p25; sites T159

## Vps34 (from UniProt Q8NEB9) T159A with Cdk5/p25
[1]
  binding against the reference: stronger
[2]
  binding against the reference: stronger
